Results: patent US20040156820A1, “Adjuvant combination formulations” (priority 2000, published 2004)

Tests used:
[1] = assay type: in vivo, cynomologous monkeys (Macaca fagscicularis); settings: cynomologous monkeys, five immunizations weeks 0, 4, 8, 18, 23
Method: Immunizations: All intranasal immunizations were delivered with a 100 μl metered dose nasal spray device. All intramuscular injections were given in the quadriceps muscle with needle and syringe. All animals were immunized on a schedule of 0, 4, 8, 18 and 23 weeks.
Group 1: 1000 μg C4 (E9V)-V389.6P peptide in sterile normal saline, final volume 200 μl (100 μl each nostril).
Group 2: 1000 μg C4 (E9V)-V389.6P peptide, 50 μg 529 SE, and 250 μg human GM-CSF, final oil concentration 1%, final volume 1.0 ml (500 μl each quadriceps by IM injection).
All animals were closely monitored for changes in body temperature during the 24 hours immediately following each administration of the immunogen.

Aβ1-42 peptide = assay: Reciprocal anti-Aβ1-42 IgG endpoint total and subclass titers (Example 4); assay type: in vivo; settings: Swiss-Webster mice n=10, 30 μg Aβ1-42 s.c. week 0 and 3
Sequence of Aβ1-42 peptide (P05067 672-713): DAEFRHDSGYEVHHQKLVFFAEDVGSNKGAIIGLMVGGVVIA
Method: Formulations were mixed by vortex immediately prior to immunization.
After incubation, wells were washed, and developed with ABTS. Wells were read at 405 nm. Titers were standardized using control sera.
The same protocol was followed for analysis of […] peptide-specific antibody and subclass distribution, except that a concentration of 0.3 μg/ml per microtiter plate was used.
Outbred Swiss-Webster mice were divided into groups of ten mice each. Each group received 30 μg of Aβ1-42 peptide, which corresponds to an internal 42 amino acid long region of APP. […] Mice were immunized subcutaneously in the rump with a total volume of 0.2 ml, divided equally into each of two sites at the base of the tail/rump. Immunizations were administered at week 0 and week 3.
Mice were bled at days 0, 20, 35 and 70. Serum was analyzed from individual mice. Reciprocal endpoint anti-Aβ1-42 peptide IgG endpoint total class and subclass titers were measured from individual sera (n=10 Swiss-Webster) at week 5 and at week 10.

Molecule | Immunogen safety and tolerability [1] | Anti-Aβ1-42 Week 5 IgG Endpoint Titers, Geometric Mean (Aβ1-42 peptide) | Anti-Aβ1-42 Week 10 IgG2a Endpoint Titers, Geometric Mean (Aβ1-42 peptide) | Anti-Aβ1-42 Week 10 IgG Endpoint Titers, Geometric Mean (Aβ1-42 peptide) | Anti-Aβ1-42 Week 5 IgG1 Endpoint Titers, Geometric Mean (Aβ1-42 peptide) | Anti-Aβ1-42 Week 5 IgG2a Endpoint Titers, Geometric Mean (Aβ1-42 peptide) | Anti-Aβ1-42 Week 10 IgG1 Endpoint Titers, Geometric Mean (Aβ1-42 peptide)
CC[C@H](C)[C@H](NC(=O)[C@H](CO)NC(=O)[C@H](CC(C)C)NC(=O)[C@H](CCCNC(=N)N)NC(=O)[C@H](CCC(=O)O)NC(=O)[C@H](CCCNC(=N)N)NC(=O)[C@@H](NC(=O)[C@H](CC(N)=O)NC(=O)[C@H](CC(N)=O)NC(=O)[C@H](CC(N)=O)NC(=O)[C@@H]1CCCN1C(=O)[C@H](CCCNC(=N)N)NC(=O)[C@@H](NC(=O)[C@H](C)NC(=O)[C@H](Cc1ccc(O)cc1)NC(=O)[C@H](CCSC)NC(=O)[C@H](C)NC(=O)[C@H](CCCCN)NC(=O)CNC(=O)[C@@H](NC(=O)[C@@H](NC(=O)[C@H](CCC(N)=O)NC(=O)[C@H](Cc1c[nH]c2ccccc12)NC(=O)[C@H](CCSC)NC(=O)[C@H](CC(N)=O)NC(=O)[C@@H](NC(=O)[C@@H](NC(=O)[C@H](CCC(N)=O)NC(=O)[C@@H](N)CCCCN)[C@@H](C)CC)[C@@H](C)CC)C(C)C)C(C)C)[C@@H](C)O)[C@@H](C)O)C(=O)NCC(=O)N1CCC[C@H]1C(=O)NCC(=O)N[C@@H](CCCNC(=N)N)C(=O)N[C@@H](C)C(=O)N[C@@H](Cc1ccccc1)C(=O)N[C@@H](Cc1ccc(O)cc1)C(=O)N[C@@H](C)C(=O)N[C@@H](CCCNC(=N)N)C(=O)N[C@@H](CCCNC(=N)N)C(=O)O [C4(E9V)-V389.6P peptide alone] | extremely well tolerated | – | – | – | – | – | –
None: 30 μg Aβ1-42 peptide (SEQ ID NO:6) without adjuvant | – | 12,976 | 5,910 | 21,426 | – | – | –
GM-CSF (10): recombinant murine granulocyte macrophage colony stimulating factor, given with Aβ1-42 peptide (protein, UniProt P01587 18-141, looked up) Granulocyte-macrophage …: APTRSPITVTRPWKHVEAIKEALNLLDDMPVTLNEEVEVVSNEFSFKKLTCVQTRLKIFEQGLRGNFTKLKGALNMTASYYQTYCPPTPETDCETQVTTYADFIDSLKTFLTDIPFECKKPGQK | – | 214,497 | 64,910 | 1,049,414 | 8,654 | 25,554 | 8,483
